Test results: publication PMC6345565

Molecular target: PICK1 WT without SNAP-tag (rat (Rattus norvegicus)), Q9EP80
Assay: fluorescence polarisation; competition: increasing unlabelled peptide, fixed 70% saturating PICK1 with OrG DAT C13; 50 mM Tris pH 7.4, 125 mM NaCl, 1 mM DTT, 0.01% Triton X-100; on ice; apparent Ki

Ki: 2100 nM
B1: unlabeled peptide of the DAT C-terminus (competitor in fluorescence polarisation) (peptide)
chain: EVRQFTLRHWLKV
modifications: not checked
